Results as given in patent US20140287419A1, “Compositions Having Dicamba Decarboxylase Activity and Methods of Use” (priority 2013, published 2014).
Entries after “also recorded” stand apart in the source; their conditions may differ.

Legend:
[1] = Dicamba decarboxylation activity of computationally designed protein variants; details: for Dicamba Decarboxylase Activity: native protein or designed variant versus parent
[2] = 14C assay with IPTG-induced recombinant E. coli cells (14CO2 capture from [14C]-carboxyl-labeled dicamba); details: for Dicamba Decarboxylase Activity: IPTG-induced recombinant E. coli cells, [14C]-carboxyl-labeled dicamba, 14CO2 capture; for Enzymatic Detection level: dicamba decarboxylation activity of the protein of the given SEQ ID NO
[3] = Table 4, variants designed to introduce activity

| Molecule | Dicamba Decarboxylase Activity [2] | Enzymatic Detection level [2] | Dicamba Decarboxylation activity [1, 3] | further results |
| --- | --- | --- | --- | --- |
| SEQ ID NO:95: Alpha-Amino-Beta-Carboxymuconate-Epsilon-Semialdehyde-Decarboxylase, Pseudomonas fluorescens (protein, listed as Pseudomonas fluorescens) MAKKPRIDMHSHFFPRISEQEAAKFDANHAPWLQVSAKGDTGSIMMGKNNFRPVYQALWDPAFRIEEMDAQGVDVQVTCATPVMFGYTWEANKAAQWAERMNDFALEFAAHNPQRIKVLAQVPLQDLDLACKEASRAVAAGHLGIQIGNHLGDKDLDDATLEAFLTHCANEDIPILVHPWDMMGGQRMKKWMLPWLVAMPAETQLAILSLILSGAFERIPKSLKICFGHGGGSFAFLLGRVDNAWRHRDIVREDCPRPPSEYVDRFFVDSAVFNPGALELLVSVMGEDRVMLGSDYPFPLGEQKIGGLVLSSNLGESAKDKIISGNASKFFNINV | – | – | – | Dicamba Decarboxylase Activity [1]: not active for dicamba decarboxylation; also recorded: Neither of the native proteins have dicamba decarboxylase activity |
| SEQ ID NO: 116 (protein, Dicamba decarboxylase variant clone DC.30.007) MAQGKVALEEHFAIPETLQDAAGFVPGDYWKELQHRLLDIQDRRVRLMDEHGIETMILSLNAPAVQAIADSTRANETARRANDFLAEQVAKQPTRFRGFAALPMQDPELAARELERCVKELGFVGALVNGFSQDNRSAVPLYYDMAQYWPFWETVQALDVPFYLHPRNPLPSDARIYDGHAWLLGPTWAFGQETAVHALRLMGSGLFDKYPALKIILGHMGEGLPYSMWRIDHRNAWIKTTPKYPAKRKIVDYFNENFYLTTSGNFRTQTLIDAILEIGADRILFSTDWPFENIDHAADWFENTSISEADRKKIGWGNAQNLFKLNR | – | – | – | Dicamba Decarboxylase Activity [1]: improved dicamba decarboxylase activity |
| SEQ ID NO:100: 4-Oxalomesaconate hydratase, Reinekea blandensis MED297 (protein, listed as Reinekea blandensis) MAIIDCHGHYTTTPKGVEDYRNAQKAAVAKDPSFKGEKGQVVVSDDEIRESIENNQLKMQRERGTDLTIFSPRASWMGHHIGNEYTSQFWTEHQNDLIRRVCDLFPKNFAPVAQLPQSPGVDPAKSVPEIVRTVEQMGFIGINLNPDPSGGYWKDTSLADRAFYPIYEKMVEYDIPAMIHVSAACNDCFHTTGSHYLGADTTGFQQLIMSDVFKDFPSLKIIIPHGGGAVPYHWGRFRGLMQDQGYAPLEESALKNIYFDTCVYHQRGIDLLLDIVPTQNILFASEMIGAVRGIDPETGHNFDDTKRYIDNNTALNAEEKAMIFEGNARRVFSRLKTD | – | – | – | Dicamba Decarboxylase Activity [1]: Neither of the native proteins have dicamba decarboxylase activity |
| 41 (protein, listed as Polaromonas sp.) MANGKIALEEHFATEETLMDSAGFVPDKDWPELRSRLLDIQDRRVRLMDEHGIETMILSLNAPAVQAIADSTRANETARRANDFLAEQVAKQPTRFRGFAALPMQDPELAARELERCVKELGFVGALVNGFSQDNRSAVPLYYDMAQYWPFWETVQALDVPFYLHPRNPLPSDARIYDGHAWLLGPTWAFGQETAVHALRLMGSGLFDKYPALKIILGHMGEGLPYSMWRIDHRNAWIKTTPKYPAKRKIVDYFNENFYLTTSGNFRTQTLIDAILEIGADRILFSTDWPFENIDHAADWFENTSISEADRKKIGWGNAQNLFKLNR | High | High | – | Dicamba Decarboxylation activity ([1]; Table 5, designed variants with improved activity): Yes; Percent Activity Improvement Over Parent (%) ([1]; parent SEQ ID NO:1 or SEQ ID NO:41 listed as 100): 100% |
| 95 (protein, listed as Pseudomonas fluorescens) MAKKPRIDMHSHFFPRISEQEAAKFDANHAPWLQVSAKGDTGSIMMGKNNFRPVYQALWDPAFRIEEMDAQGVDVQVTCATPVMFGYTWEANKAAQWAERMNDFALEFAAHNPQRIKVLAQVPLQDLDLACKEASRAVAAGHLGIQIGNHLGDKDLDDATLEAFLTHCANEDIPILVHPWDMMGGQRMKKWMLPWLVAMPAETQLAILSLILSGAFERIPKSLKICFGHGGGSFAFLLGRVDNAWRHRDIVREDCPRPPSEYVDRFFVDSAVFNPGALELLVSVMGEDRVMLGSDYPFPLGEQKIGGLVLSSNLGESAKDKIISGNASKFFNINV | No | No | No | – |
| 100 (protein, listed as Reinekea blandensis) MAIIDCHGHYTTTPKGVEDYRNAQKAAVAKDPSFKGEKGQVVVSDDEIRESIENNQLKMQRERGTDLTIFSPRASWMGHHIGNEYTSQFWTEHQNDLIRRVCDLFPKNFAPVAQLPQSPGVDPAKSVPEIVRTVEQMGFIGINLNPDPSGGYWKDTSLADRAFYPIYEKMVEYDIPAMIHVSAACNDCFHTTGSHYLGADTTGFQQLIMSDVFKDFPSLKIIIPHGGGAVPYHWGRFRGLMQDQGYAPLEESALKNIYFDTCVYHQRGIDLLLDIVPTQNILFASEMIGAVRGIDPETGHNFDDTKRYIDNNTALNAEEKAMIFEGNARRVFSRLKTD | No | No | No | – |
| 2 (protein, listed as Serratia sp.) MAKIICLEEHTLDKALVMASMPAALEQAPFLSDWGKTVTDGNLPDRSRPQIEKNDLINIKGADIGRGRLDDMDVAGITMQVLSVGGFPHLISAAEGVDLNRAANDRLADAVNAHPDRFAAFATLPWAQPDSAEKELERAVKELGFKGALLNGRPSTHFLDHPDYDGLLARFNALGVPLYLHPGLPVRSVQQAYYGGFSDEVTARLSMFGWGWHHEAGIHLLRLILSGAFDKYPNLQVISGHWGEMLPFWLQRLDDSLPQAATGLRRTIAQTFKEQVYVTPSGMLTLPHFQFIYALLGAERIIFSVDYPYQTLDGVKAFIQSLPVPEEAKEAIAFRNAERLLGLTS | High | High | – | – |
| 117 (protein, Dicamba decarboxylase variant clone DC.5.008) MAKKPRIDMHSHFFPRISEQEAAKFDANHAPWLQVSAKGDTGSIMMGKNNFRPVYQALWDPAFRIEEMDAQGVDVQVTCATPVMFGYTWEANKAAQWAERMNDFALEFAAHNPQRIKVLAQVPLQDLDLACKEASRAVAAGHLGIQIGNHLGDKDLDDATLEAFLTHCANEDIPILVHPWDMMGGQRMKKWMLPVLVAAPAEVQLAILSLILSGAFERIPKSLKICFAGGGGSFAFLLGIVDLAWRHRDIVREDCPRPPSEYVDRFFVDSLVFNPGALELLVSVMGEDRVMLGSDYPFPTGEQKIGGLVLSSNLGESAKDKIISGNASKFFNINV | – | High | Yes | – |
| 118 (protein, Dicamba decarboxylase variant clone DC.5.033) MAKKPRIDMHSHFFPRISEQEAAKFDANHAPWLQVSAKGDTGSIMMGKNNFQPVYQALWDPAFRIEEMDAQGVDVQVTCATPVMFGYTWEANKAAQWAERMNDFALEFAAHNPQRIKVLAQVPLQDLDLACKEASRAVAAGHLGIQIGNHLGDKDLDDATLEAFLTHCANEDIPILVHGTDMMGGQRMKKWGLPWLVALAAEVQLAILSLILSGAFERIPKSLKICFSHGGGSFAFLLGLVDEAWRHVDIVREDCPRPPSEYVDRFFVDSVGNPGALELLVSVMGEDRVMLGSDYPHTTGEQKIGGLVLSSNLGESAKDKIISGNASKFFNINV | – | High | Yes | – |
| 119 (protein, Dicamba decarboxylase variant cloneDC.5.034) MAKKPRIDMHSHFFPRISEQEAAKFDANHAPWLQVSAKGDTGSIMMGKNNFQPVYQALWDPAFRIEEMDAQGVDVQVTCATPVMFGYTWEANKAAQWAERMNDFALEFAAHNPQRIKVLAQVPLQDLDLACKEASRAVAAGHLGIQIGNHLGDKDLDDATLEAFLTHCANEDIPILVHGWDMMGGQRMKKWGLYWLVAHHAEVQLAILSLILSGAFERIPKSLKICFSHGGGSFAFTLGWVDEAWRHVDIVREDCPRPPSEYVDRFFVDSVGNPGALELLVSVMGEDRVMLGSDYPLTTGEQKIGGLVLSSNLGESAKDKIISGNASKFFNINV | – | High | Yes | – |
| 120 (protein, Dicamba decarboxylase variant clone DC.12.002) MAIIDCHGHYTTTPKGVETYRNAQKAAVAKDPSFKYEKGQVVVSDDEIRESIENNQLKMQRERGTDLTIFSPRSTAGGHHIGNEYTSQFWTEHQNDLIRRVCDLFPKNFAPVAQLPQSPGVDPAKSVPEIVRTVEQMGFIGINLNPDPSGGYWKDTSLADRAFYPIYEKMVEYDIPAMIHPRNACNDCFHTTGSHALGADTTGFQQLIMSDVFKDFPSLKIIIPHGGGAVPYHWGRFRGLMQDQGYAPLEESALKNIYFDTCVYHQRGIDLLLDIVPTQNILFASEMIGAVRGIDAETGHNFDDTKRYIDNNTALNAEEKAMIFEGNARRVFSRLKTD | – | High | Yes | – |
| 121 (protein, Dicamba decarboxylase variant clone DC.12.014) MAIIDCHGHYTTTPKGVEDYRNAQKAAVAKDPSFKGEKGQVVVSDDEIRESIENNQLKMQRERGTDLTIFSPRWDAGGHHIGNEYTSQFWTEHQNDLIRRVCDLFPKNFAPVAQLPQSPGVDPAKSVPEIVRTVEQMGFIGINLNPDPSGGYWKDTSLADRAFYPIYEKMVEYDIPAMIHPRLACNACFHTGLSVGLGADTTGFQQLIMSDVFKDFPSLKIIIPHGGGAVPYHWGRFRGLMQDQGYAPLEESALKNIYFDTCVYHQRGIDLLLDIVPTQNILFASEMIGAVRGIDPETGHNFDDTKRYIDNNTALNAEEKAMIFEGNARRVFSRLKTD | – | High | Yes | – |
| 122 (protein, Dicamba decarboxylase variant clone DC.12.103) MAIIDCHGHYTTTPKGVEDYRNAQKAAVAKDPSFKGEKGQVVVSDDEIRESIENNQLKMQRERGTDLTIFSPRSTAGGHHIGNEYTSQFWTEHQNDLIRRVCDLFPKNFAPVAQLPQSPGVDPAKSVPEIVRTVEQMGFIGINLNPDPSGGYWKDTSLADRAFYPIYEKMVEYDIPAMIHPRNACNDCFHTTGSHALGADTTGFQQLIMSDVFKDFPSLKIIIPHGGGAVPYHWGRFRGLMQDQGYAPLEESALKNIYFDTCVYHQRGIDLLLDIVPTQNILFASDMIGAVRGIDPETGHNFDDTKRYIDNNTALNAEEKAMIFEGNARRVFSRLKTD | – | High | Yes | – |
